This note sets out measurements from article PMC9512700, “Observation of conformational changes that underlie the catalytic cycle of Xrn2” (Nature Chemical Biology, 2022).

Data set [1] concerns the target T1, CtXrn2 (Xrn2 WT, residues 1-875) (Thermochaetoides thermophila, UniProt G0S058).
T1 construct: gene CTHT_0008830; Xrn core, residues 1-875, C-terminal tag LEHHHHHH kept, E. coli BL21(DE3) CodonPlus-RIL, 100 kDa, single chain; Ile-delta1/Met methyl-labelled for NMR
T1 sequence (G0S058 1-875): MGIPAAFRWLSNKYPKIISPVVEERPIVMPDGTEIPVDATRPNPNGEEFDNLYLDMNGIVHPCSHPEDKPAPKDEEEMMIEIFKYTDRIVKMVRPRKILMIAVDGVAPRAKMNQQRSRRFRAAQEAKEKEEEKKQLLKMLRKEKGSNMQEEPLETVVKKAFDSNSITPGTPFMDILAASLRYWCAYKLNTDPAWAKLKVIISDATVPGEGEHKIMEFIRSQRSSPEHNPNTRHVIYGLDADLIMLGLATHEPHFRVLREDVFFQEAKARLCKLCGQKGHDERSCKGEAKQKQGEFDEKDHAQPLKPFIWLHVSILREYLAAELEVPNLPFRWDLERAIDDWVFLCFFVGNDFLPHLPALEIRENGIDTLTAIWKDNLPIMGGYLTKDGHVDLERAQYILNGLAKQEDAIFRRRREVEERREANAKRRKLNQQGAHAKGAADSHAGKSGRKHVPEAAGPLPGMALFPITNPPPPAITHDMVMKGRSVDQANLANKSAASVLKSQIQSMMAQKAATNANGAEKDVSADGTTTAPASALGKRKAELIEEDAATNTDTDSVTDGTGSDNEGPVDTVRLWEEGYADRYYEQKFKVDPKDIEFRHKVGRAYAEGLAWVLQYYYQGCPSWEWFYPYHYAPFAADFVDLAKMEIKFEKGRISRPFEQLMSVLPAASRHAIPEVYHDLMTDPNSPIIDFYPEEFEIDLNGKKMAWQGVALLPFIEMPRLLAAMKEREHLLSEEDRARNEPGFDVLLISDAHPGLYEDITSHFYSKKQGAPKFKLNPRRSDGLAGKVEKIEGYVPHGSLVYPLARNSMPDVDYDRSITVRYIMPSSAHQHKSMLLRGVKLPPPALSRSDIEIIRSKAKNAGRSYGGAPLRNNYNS
Description: 1H-13C HMQC methyl-TROSY NMR chemical shift perturbation. In kind it is binding. Particulars: 313 K; 5 mM MgCl2; 50 uM protein; 500 uM pAp; around active site.

In data set [2] the target is T2, CtXrn2 (Xrn2 WT, residues 1-875) (Thermochaetoides thermophila, UniProt G0S058, A5F).
T2 construct: gene CTHT_0008830; Xrn core, residues 1-875, C-terminal tag LEHHHHHH kept, E. coli BL21(DE3) CodonPlus-RIL, 100 kDa, single chain; Ile-delta1/Met methyl-labelled for NMR
Nature of the data set: 1H-13C HMQC methyl-TROSY NMR. In kind it is binding. Particulars: 313 K; 5 mM MgCl2; 50 uM protein; 500 uM pAp.

Data set [3] concerns the target T3, CtXrn2 1-875 (WT) (Chaetomium thermophilum, UniProt G0S058 1-875).
T3 sequence: T1 sequence (G0S058 1-875)
Nature of the data set: NMR (methyl-TROSY CSP); 5 mM Mg2+; RNA trimmed at 5' end; locked in pre-translocation state; Fluorescence anisotropy: 25 mM HEPES pH 7.3, 125 mM NaCl, 0.002% Triton, no Mg2+, with Zn2+, temperature not stated (room temperature used for dG); NMR: 25 mM H. Particulars: protein: recombinant; pseudoknot with unstructured 5' end. (In general: Fluorescence polarisation rises when a labelled molecule tumbles more slowly, as on binding a larger partner.)

Data set [4] has as its target T3, CtXrn2 1-875 (WT). Description: fluorescence anisotropy; no Mg2+, with Zn2+; Fluorescence anisotropy: 25 mM HEPES pH 7.3, 125 mM NaCl, 0.002% Triton, no Mg2+, with Zn2+, temperature not stated (room temperature used for dG); NMR: 25 mM H. Particulars: protein: recombinant; label: fluorescein on 3' thiouridine (6-iodoacetamido-fluorescein); single strand.
In a further data set the target is T4, CtXrn2 deltaZnF (Chaetomium thermophilum, UniProt G0S058 1-875, del263-300).
T4 sequence: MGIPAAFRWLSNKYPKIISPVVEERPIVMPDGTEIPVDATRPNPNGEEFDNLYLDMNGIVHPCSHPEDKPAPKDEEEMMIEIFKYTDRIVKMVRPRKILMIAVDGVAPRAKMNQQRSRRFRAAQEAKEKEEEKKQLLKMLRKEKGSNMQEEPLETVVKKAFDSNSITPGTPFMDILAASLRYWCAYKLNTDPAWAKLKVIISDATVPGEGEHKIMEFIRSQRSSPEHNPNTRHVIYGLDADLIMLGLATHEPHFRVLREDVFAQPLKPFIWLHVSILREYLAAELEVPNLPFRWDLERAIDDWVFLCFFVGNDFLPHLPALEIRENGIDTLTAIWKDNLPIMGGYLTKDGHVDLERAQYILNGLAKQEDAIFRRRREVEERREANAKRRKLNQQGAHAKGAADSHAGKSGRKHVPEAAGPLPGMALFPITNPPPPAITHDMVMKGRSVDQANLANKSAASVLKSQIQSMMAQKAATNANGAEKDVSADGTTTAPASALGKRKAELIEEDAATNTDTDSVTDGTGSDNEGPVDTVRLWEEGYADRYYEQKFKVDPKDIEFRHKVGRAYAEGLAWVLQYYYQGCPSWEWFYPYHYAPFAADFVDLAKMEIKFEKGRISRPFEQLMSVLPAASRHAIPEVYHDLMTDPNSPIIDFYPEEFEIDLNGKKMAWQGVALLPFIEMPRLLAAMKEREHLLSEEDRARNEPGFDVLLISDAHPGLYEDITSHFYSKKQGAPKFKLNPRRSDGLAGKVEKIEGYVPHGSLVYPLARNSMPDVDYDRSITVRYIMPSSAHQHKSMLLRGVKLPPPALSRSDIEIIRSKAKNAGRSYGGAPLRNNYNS
The data set is described as above. Particulars: protein: recombinant; label: fluorescein on 3' thiouridine (6-iodoacetamido-fluorescein); single strand.

For data set [5], the target named is T3, CtXrn2 1-875 (WT). Description: NMR (methyl-TROSY CSP of M704); no Mg2+; active state not formed; Fluorescence anisotropy: 25 mM HEPES pH 7.3, 125 mM NaCl, 0.002% Triton, no Mg2+, with Zn2+, temperature not stated (room temperature used for dG); NMR: 25 mM H. Particulars: protein: recombinant; single strand.

T2 sequence (G0S058 entry or part of it A5F): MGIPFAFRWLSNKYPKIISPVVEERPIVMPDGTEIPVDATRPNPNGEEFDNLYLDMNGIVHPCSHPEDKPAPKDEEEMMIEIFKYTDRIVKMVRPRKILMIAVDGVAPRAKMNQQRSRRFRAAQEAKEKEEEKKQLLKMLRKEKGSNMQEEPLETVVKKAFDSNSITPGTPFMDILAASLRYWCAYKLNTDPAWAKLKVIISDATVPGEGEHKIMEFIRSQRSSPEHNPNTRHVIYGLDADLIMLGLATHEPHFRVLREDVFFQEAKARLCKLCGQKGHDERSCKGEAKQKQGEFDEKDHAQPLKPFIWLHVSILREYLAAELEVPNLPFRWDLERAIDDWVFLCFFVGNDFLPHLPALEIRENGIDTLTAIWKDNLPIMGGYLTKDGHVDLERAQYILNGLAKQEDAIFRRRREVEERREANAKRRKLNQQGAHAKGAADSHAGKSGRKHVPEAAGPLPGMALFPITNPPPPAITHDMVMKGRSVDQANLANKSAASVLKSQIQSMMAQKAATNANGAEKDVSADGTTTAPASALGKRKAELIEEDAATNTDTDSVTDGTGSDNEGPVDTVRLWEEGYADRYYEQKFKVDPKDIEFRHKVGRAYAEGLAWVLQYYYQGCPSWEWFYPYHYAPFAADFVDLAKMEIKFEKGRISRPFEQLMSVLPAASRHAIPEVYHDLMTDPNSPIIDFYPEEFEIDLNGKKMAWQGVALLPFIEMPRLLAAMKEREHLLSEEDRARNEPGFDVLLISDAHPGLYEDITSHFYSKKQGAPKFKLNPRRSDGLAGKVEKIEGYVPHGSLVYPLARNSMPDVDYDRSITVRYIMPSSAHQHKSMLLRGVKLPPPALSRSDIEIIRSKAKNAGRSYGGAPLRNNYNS

Turning to `Nc1ncnc2c1ncn2[C@@H]1O[C@H](COP(=O)(O)O)[C@@H](OP(=O)(O)O)[C@H]1O` [pAp], the “1H-13C HMQC methyl-TROSY NMR chemical shift perturbation” value in data set [1] is reported as “The binding of pAp to Xrn2 resulted in substantial chemical shift perturbations”. Also, the “1H-13C HMQC methyl-TROSY NMR” value in data set [2] is “HMQC spectra of the Xrn2 WT:pAp complex (black) and Xrn2 A5F:pAp complex (orange)”.

B1: ZIKV xrRNA (structured_RNA)
RNA: GGGAGUGUUGUAAGCACCAAUUUUAGUGUUGUCAGGCCGGCGAAAGUCGCCACAGUUUGGGGAAAGCUGUGCAGCCUGUAACCCCCCCACGAAAGUGGG
modifications: 5'-monophosphate
For the molecule B1, the binding result with CtXrn2 1-875 (WT) [3] is recorded as “binds”. GGAGGAGAGU (ssRNA, 5'-monophosphate; 3'-terminal 4-thiouridine) [10-mer RNA]: the binding result with CtXrn2 1-875 (WT) [4] is listed as “binds”. Besides, the binding signal with CtXrn2 deltaZnF is about 3 fold Kd increase vs WT. Turning to GGAGU (ssRNA, 5'-monophosphate; 3'-terminal 4-thiouridine) [5-mer RNA], in the data set with CtXrn2 1-875 (WT) [4], the binding result is “binds”. Moreover, the binding signal in the data set with CtXrn2 deltaZnF is 1.5 fold Kd increase vs WT.

Consider AAAAA (ssDNA, 5'-phosphate) [pdA5], for which the binding result with CtXrn2 1-875 (WT) [5] was “binds”.
